Patent publication US20230110875A1 (US Dept. of Health and Human Services, published 2023)

Target: T1, mouse CD276-AP fusion protein (mouse, UniProt Q8VE98 29-248)
T1 construct: Coated on the ELISA plate at 2 ug/ml; not shown: AP fusion partner
T1 sequence (looked up): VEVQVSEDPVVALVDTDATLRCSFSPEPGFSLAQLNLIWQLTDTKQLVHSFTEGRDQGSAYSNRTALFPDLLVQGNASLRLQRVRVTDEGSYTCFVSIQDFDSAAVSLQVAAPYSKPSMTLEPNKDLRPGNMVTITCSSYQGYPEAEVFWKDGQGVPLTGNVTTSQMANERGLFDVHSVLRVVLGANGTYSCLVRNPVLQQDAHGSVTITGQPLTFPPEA
Test: ELISA, mouse CD276-AP fusion protein coated at 2 ug/ml, serially diluted scFv-Fc culture medium, HRP goat anti-human IgG, OD 450 nm
Procedure: 50 μl of the diluted mouse or human CD276-AP fusion protein in PBS at 2 μg/ml was coated in a 96-well plate at 4° C. overnight. Transiently expressed scFv-Fc fusion protein in the culture medium was serially diluted and added into the target protein coated wells. After washing, a 1:3000 diluted horseradish peroxidase (HRP) conjugated goat anti-human IgG antibody was added for 1 hr at RT. After washing, 3, 3, 5, 5′-Tetramethylbenzidine (TMB) substrate was added, and the optical density (O.D.) was read at 450 nm.

- binding result: no binding
B1: Clone CD276.1 (m851) scFv-Fc fusion protein (Fc fusion)
scFv: QVQLQQSGAEVKKPGSSVKVSCKASGGTFSSYAISWVRQAPGQGLEWMGGIIPILGIANYAQKFQGRVTITADESTSTAYMELSSLRSEDTAVYYCARGGAGGSGSYYPLIWGQGTTVTVSSGGGGSGGGGSGGGGSEIVLTQSPATLSLSPGERATLSCGASQSVSSSYLAWYQQKPGQAPRLLIYDASSRATGIPARFSGSGSGTDFTLTISSLEPEDFAVYYCQQRSSWPPTWTFGQGTKLEIKR
notes: also called m851 (CD276.1); not shown: Fc-Avi tag from modified pSecTag vector
